Data published in paper PMC3306366, “Oligomeric Status and Nucleotide Binding Properties of the Plastid ATP/ADP Transporter 1: Toward a Molecular Understanding of the Transport Mechanism” (PLoS ONE, 2012).
Where two headings read alike, the source gives them in different places. One block for each molecule: values may come before it.

Key:
[1] = molecular target: T1, NTT1 (plastid / chloroplast ATP/ADP transporter 1) (Arabidopsis thaliana, UniProt Q39002, K528E); assay: tryptophan fluorescence variation; assay type: binding; conditions: read-out: Affinity for ADP
T1 construct: gene AATP1; mature form lacking first 79 residues (transit peptide), N-terminal His-tag, C-terminal StreptagII; E. coli; purified in LAPAO; monomers and dimers
T1 sequence (Q39002 80-624 K528E): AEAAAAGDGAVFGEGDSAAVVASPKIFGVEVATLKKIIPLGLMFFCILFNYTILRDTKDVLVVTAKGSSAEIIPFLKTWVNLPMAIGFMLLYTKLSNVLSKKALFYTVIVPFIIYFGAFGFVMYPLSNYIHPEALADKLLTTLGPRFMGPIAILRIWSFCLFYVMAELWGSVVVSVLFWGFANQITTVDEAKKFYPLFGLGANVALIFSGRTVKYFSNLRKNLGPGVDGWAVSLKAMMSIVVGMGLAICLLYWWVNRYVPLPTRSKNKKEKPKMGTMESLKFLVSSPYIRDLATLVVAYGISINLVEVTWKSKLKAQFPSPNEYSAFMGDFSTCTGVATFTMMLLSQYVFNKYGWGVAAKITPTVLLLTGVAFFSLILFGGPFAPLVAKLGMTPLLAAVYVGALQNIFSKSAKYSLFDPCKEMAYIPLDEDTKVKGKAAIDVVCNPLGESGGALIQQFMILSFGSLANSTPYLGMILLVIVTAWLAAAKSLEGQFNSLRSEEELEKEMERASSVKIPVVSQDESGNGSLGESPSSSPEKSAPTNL
From the text: (§1) tryptophan fluorescence variation on NTT1 (plastid / chloroplast ATP/ADP transporter 1)

[2] = molecular target: T2, NTT1 (plastid / chloroplast ATP/ADP transporter 1) (Arabidopsis thaliana, UniProt Q39002, K528R); assay: tryptophan fluorescence variation; assay type: binding
T2 construct: gene AATP1; mature form lacking first 79 residues (transit peptide), N-terminal His-tag, C-terminal StreptagII; E. coli; purified in LAPAO; monomers and dimers
T2 sequence (Q39002 80-624 K528R): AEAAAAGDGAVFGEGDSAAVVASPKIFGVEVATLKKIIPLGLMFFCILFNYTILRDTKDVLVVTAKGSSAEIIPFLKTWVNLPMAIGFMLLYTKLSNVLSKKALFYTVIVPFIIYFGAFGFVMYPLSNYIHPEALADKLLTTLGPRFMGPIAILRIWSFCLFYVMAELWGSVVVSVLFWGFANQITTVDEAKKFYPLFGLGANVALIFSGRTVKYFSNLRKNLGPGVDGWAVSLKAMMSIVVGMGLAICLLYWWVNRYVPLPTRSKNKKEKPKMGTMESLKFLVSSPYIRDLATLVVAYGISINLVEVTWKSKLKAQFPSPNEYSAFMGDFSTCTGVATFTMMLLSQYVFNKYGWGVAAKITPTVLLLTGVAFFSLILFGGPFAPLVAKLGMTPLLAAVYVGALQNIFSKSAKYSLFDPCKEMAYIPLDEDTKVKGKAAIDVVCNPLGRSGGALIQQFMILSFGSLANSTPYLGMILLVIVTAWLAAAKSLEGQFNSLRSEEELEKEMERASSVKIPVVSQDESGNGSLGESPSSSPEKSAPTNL
From the text: as §1

[3] = molecular target: T3, NTT1 (plastid / chloroplast ATP/ADP transporter 1) (Arabidopsis thaliana, UniProt Q39002, E246K); assay: tryptophan fluorescence variation; assay type: binding
T3 construct: gene AATP1; mature form lacking first 79 residues (transit peptide), N-terminal His-tag, C-terminal StreptagII; E. coli; purified in LAPAO; monomers and dimers
T3 sequence (Q39002 80-624 E246K): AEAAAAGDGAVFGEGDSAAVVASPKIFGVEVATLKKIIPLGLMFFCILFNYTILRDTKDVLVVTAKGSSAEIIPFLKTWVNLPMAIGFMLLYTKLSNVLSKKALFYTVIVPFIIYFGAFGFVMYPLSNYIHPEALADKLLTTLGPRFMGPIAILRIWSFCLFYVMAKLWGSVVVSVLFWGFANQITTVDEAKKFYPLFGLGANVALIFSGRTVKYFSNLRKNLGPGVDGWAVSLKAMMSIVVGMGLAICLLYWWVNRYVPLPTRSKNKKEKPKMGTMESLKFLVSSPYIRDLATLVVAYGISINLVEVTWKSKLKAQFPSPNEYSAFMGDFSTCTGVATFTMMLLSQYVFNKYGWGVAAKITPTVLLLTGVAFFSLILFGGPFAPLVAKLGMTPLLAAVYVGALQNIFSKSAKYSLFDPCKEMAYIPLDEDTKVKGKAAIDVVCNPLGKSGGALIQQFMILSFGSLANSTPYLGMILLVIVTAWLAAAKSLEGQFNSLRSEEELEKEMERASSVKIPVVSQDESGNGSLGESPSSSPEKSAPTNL
From the text: as §1

[4] = molecular target: T4, NTT1 (plastid / chloroplast ATP/ADP transporter 1) (Arabidopsis thaliana, UniProt Q39002); assay: tryptophan fluorescence quenching; assay type: binding; conditions: 20 mM Tris pH 8, 10 mM NaCl, 0.1% LAPAO, 25°C; no Mg2+, no Pi; one-site fit; read-out: Affinity
T4 construct: gene AATP1; mature form lacking first 79 residues (transit peptide), N-terminal His-tag, C-terminal StreptagII; E. coli; purified in LAPAO; monomers and dimers
T4 sequence (Q39002 80-624): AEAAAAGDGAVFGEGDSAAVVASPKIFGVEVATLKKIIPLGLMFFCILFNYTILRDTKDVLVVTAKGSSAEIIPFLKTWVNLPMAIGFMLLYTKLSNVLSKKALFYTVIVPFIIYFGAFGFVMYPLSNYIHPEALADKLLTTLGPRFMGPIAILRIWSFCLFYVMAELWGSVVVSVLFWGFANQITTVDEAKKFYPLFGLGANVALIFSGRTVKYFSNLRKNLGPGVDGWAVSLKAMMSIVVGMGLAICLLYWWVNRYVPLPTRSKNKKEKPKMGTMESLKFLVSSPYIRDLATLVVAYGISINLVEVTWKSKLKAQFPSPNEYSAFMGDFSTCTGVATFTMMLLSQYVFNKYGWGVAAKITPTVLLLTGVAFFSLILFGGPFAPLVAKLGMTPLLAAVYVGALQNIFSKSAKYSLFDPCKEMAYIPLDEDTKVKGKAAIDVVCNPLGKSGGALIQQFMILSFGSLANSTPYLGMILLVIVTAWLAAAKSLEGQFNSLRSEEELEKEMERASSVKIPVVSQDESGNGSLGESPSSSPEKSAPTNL
From the text: tryptophan fluorescence quenching on NTT1 (plastid / chloroplast ATP/ADP transporter 1)

[5] = molecular target: T5, NTT1ΔC (Arabidopsis thaliana, UniProt Q39002); assay: tryptophan fluorescence variation, two-site fit; assay type: binding; conditions: 20 mM Tris pH 8, 10 mM NaCl, 0.1% LAPAO, 25°C, stronger site of two-site fit
T5 construct: gene AATP1; mature form (first 79 residues removed) with last 41 residues deleted (deletion borders computed from a recalled length of 624); tagged; E. coli; purified in LAPAO; partly aggregated
T5 sequence (Q39002 80-583): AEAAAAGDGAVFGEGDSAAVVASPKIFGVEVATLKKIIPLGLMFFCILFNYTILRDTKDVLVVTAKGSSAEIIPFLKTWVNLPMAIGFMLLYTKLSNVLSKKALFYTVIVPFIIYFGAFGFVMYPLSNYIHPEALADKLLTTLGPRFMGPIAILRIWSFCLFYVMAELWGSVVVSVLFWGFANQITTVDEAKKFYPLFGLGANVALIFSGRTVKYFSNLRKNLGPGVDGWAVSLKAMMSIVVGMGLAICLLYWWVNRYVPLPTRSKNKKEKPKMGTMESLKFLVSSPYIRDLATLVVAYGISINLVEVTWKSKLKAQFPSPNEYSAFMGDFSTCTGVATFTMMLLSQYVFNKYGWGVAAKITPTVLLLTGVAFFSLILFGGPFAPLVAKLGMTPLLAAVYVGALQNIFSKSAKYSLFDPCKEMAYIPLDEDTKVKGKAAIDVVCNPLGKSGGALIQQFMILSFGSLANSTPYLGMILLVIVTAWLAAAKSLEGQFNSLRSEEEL
From the text: tryptophan fluorescence variation, two-site fit on NTT1ΔC

[6] = molecular target: Chloroplast ATP/ADP transporter 1 (NTT1), mature form (Arabidopsis thaliana); assay: AUC; sedimentation velocity, NTT1 solubilised and purified in β-DDM; 42,000 rpm, 10°C
[7] = molecular target: Chloroplast ATP/ADP transporter 1 (NTT1), mature form (Arabidopsis thaliana); assay: Multiple Angle Laser Light Scattering; purified NTT1 in LAPAO; data not shown
[8] = molecular target: Chloroplast ATP/ADP transporter 1 (NTT1), mature form (Arabidopsis thaliana); assay: AUC; sedimentation velocity, NTT1 solubilised and purified in FC12; 42,000 rpm, 10°C
[9] = molecular target: Chloroplast ATP/ADP transporter 1 (NTT1), mature form (Arabidopsis thaliana); assay: AUC; sedimentation velocity, NTT1 exchanged from detergent into amphipols; 42,000 rpm, 10°C
[10] = molecular target: Chloroplast ATP/ADP transporter 1 (NTT1), mature form (Arabidopsis thaliana); assay: AUC; sedimentation velocity, purified protein in 20 mM Tris pH 8, 100 mM NaCl, 0.1% LAPAO, 3 mM desthiobiotin; 42,000 rpm, 10°C; c(s) analysis, absorbance and interference
[11] = molecular target: T6, NTT1 (plastid / chloroplast ATP/ADP transporter 1) (Arabidopsis thaliana, UniProt Q39002, K156R); assay: tryptophan fluorescence variation; assay type: binding; conditions: read-out: Affinity for ATP
T6 construct: gene AATP1; mature form lacking first 79 residues (transit peptide), N-terminal His-tag, C-terminal StreptagII; E. coli; purified in LAPAO; monomers and dimers
T6 sequence (Q39002 80-624 K156R): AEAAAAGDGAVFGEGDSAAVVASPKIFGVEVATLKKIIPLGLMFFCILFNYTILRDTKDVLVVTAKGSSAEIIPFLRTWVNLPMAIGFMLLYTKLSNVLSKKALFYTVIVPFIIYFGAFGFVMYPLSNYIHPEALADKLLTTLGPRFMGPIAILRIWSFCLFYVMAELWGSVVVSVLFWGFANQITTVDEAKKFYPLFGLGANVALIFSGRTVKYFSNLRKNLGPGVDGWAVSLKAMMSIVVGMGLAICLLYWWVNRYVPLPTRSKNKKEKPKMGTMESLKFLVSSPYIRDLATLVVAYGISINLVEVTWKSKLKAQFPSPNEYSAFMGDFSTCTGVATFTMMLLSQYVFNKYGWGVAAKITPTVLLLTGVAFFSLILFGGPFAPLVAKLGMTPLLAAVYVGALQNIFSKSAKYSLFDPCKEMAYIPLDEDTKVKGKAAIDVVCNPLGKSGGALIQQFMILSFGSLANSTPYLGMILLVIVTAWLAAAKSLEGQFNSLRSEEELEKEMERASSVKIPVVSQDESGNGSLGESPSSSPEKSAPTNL
From the text: as §1

[12] = substrate: Nc1ncnc2c1ncn2[C@@H]1O[C@H](COP(=O)(O)OP(=O)(O)OP(=O)(O)O)[C@@H](O)[C@H]1O; assay: radioactive ATP uptake in whole E. coli cells; assay type: cell-based, Arabidopsis thaliana; conditions: transport Km; C-terminal Mistic fusion
From the text: radioactive ATP uptake in whole E. coli cells on […]

[13] = substrate: Nc1ncnc2c1ncn2[C@@H]1O[C@H](COP(=O)(O)OP(=O)(O)O)[C@@H](O)[C@H]1O; assay: ATP/ADP exchange by luciferase luminescence, whole E. coli cells; assay type: cell-based, Arabidopsis thaliana; conditions: transport Km; C-terminal Mistic fusion
From the text: ATP/ADP exchange by luciferase luminescence, whole E. coli cells on NTT1mis

Molecule: Nc1ncnc2c1ncn2[C@@H]1O[C@H](COP(=O)(O)OP(=O)(O)O)[C@@H](O)[C@H]1O [ADP]
- Kd [1]: 19 ± 24.1 µM
- Kd ([2]; read-out: Affinity for ADP): 33.5 ± 22.3 µM
- Kd ([3]; read-out: Affinity for ADP): 14 ± 5.1 µM
- Kd [4]: 8.6 ± 1.5 µM
- Kd ([5]; read-out: Affinity for ADP): 0.6 ± 0.7 µM

B1: NTT1mis (Arabidopsis thaliana) (protein)
chain: AEAAAAGDGAVFGEGDSAAVVASPKIFGVEVATLKKIIPLGLMFFCILFNYTILRDTKDVLVVTAKGSSAEIIPFLKTWVNLPMAIGFMLLYTKLSNVLSKKALFYTVIVPFIIYFGAFGFVMYPLSNYIHPEALADKLLTTLGPRFMGPIAILRIWSFCLFYVMAELWGSVVVSVLFWGFANQITTVDEAKKFYPLFGLGANVALIFSGRTVKYFSNLRKNLGPGVDGWAVSLKAMMSIVVGMGLAICLLYWWVNRYVPLPTRSKNKKEKPKMGTMESLKFLVSSPYIRDLATLVVAYGISINLVEVTWKSKLKAQFPSPNEYSAFMGDFSTCTGVATFTMMLLSQYVFNKYGWGVAAKITPTVLLLTGVAFFSLILFGGPFAPLVAKLGMTPLLAAVYVGALQNIFSKSAKYSLFDPCKEMAYIPLDEDTKVKGKAAIDVVCNPLGKSGGALIQQFMILSFGSLANSTPYLGMILLVIVTAWLAAAKSLEGQFNSLRSEEELEKEMERASSVKIPVVSQDESGNGSLGESPSSSPEKSAPTNL
notes: expressed in E. coli, assayed in whole cells; with Protein mistic
- Km [12]: 13.2 ± 5.3 µM
- Km [13]: 12.0 ± 5.2 µM

The next lines start with the values.

- dimer (% of the three species) [6]: 29%
- stoichiometry N [7]: 4
- dimer (% of the three species) [8]: 35%
- tetramer (% of the three species) [8]: 18%
- dimer (% of the three species) [9]: 33%
- tetramer (% of the three species) [9]: 23%
- dimer (% of the three species) [10]: 35%
- stoichiometry N [10]: 2
- tetramer (% of the three species) [10]: 23%
Molecule: Chloroplast ATP/ADP transporter 1 (NTT1), mature form (natural protein)

- Kd ([2]; read-out: Affinity for ATP): > 1000 µM
- Kd [11]: 91.2 ± 58.8 µM
- Kd ([3]; read-out: Affinity for ATP): 1.9 ± 1.7 µM
- Kd [4]: 4.2 ± 0.7 µM
- Kd ([5]; read-out: Affinity for ATP): 0.7 ± 0.5 µM
Molecule: Nc1ncnc2c1ncn2[C@@H]1O[C@H](COP(=O)(O)OP(=O)(O)OP(=O)(O)O)[C@@H](O)[C@H]1O [ATP]
